# B1: Azoarcus group I ribozyme (parent)
# chain: GUGCCUUGCGCCGGGAAACCACGCAAGGGAUGGUGUCAAAUUCGGCGAAACCUAAGCGCCCGCCCGGGCGUAUGGCAACGCCGAGCCAAGCUUCGGCGCCUGCGCCGAUGAAGGUGUAGAGACUAGACGGCACCCACCUAAGGCAAACGCUAUGGUGAAGGCAUAGUCCAGGGAGUGGCGAAAGUCACACAAACCGG
# Variants of: B1
# Experiment: reverse-splicing fitness (ratio to wild type); higher = more active; in vitro selection; Mg2+ level not given
# In short: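 An in vitro group I ribozyme library with randomized positions was T7-transcribed and gel-purified. In triplicate, 10 pmol RNA in EPPS pH 7.5 was reacted with 50 pmoles of a 30-nt RNA substrate for 1 h at 37 °C across several added MgCl2 levels (1–48 mM), then stopped with EDTA. Products were reverse transcribed from a substrate-complementary primer, PCR-amplified and sequenced (HiSeq 4000). Fitness is a variant's read proportion after selection over that before, normalised to wild type.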
row,Variant,reverse-splicing fitness
1,C82G A120G A145G C150G C169U U176C,0.0139
2,C82G A120G A145G C150G C169U U176G,0.00717
3,C82G A120G A145G C150G C169U U176A,0.0131
4,C82G A120G C169G U176A,0.0234
5,C82G A120G C169G U176C,0.0324
6,C82G A120G C169G U176G,0.00375
7,C82G A120G A145U C150U C169A U176C,0.0133
8,C82G A120G A145U C150U C169A U176G,0.00467
9,C82G A120G A145U C150U C169A U176A,0.0161
10,C82G A120U A145C C150A C169A U176C,0.00208
11,C82G A120U A145C C150A C169A U176A,0.0017
12,C82G A120U A145C C150A C169A U176G,0.00157
13,C82G A120G A145G C150U C169A U176A,0.0171
14,C82G A120G A145G C150U C169A U176C,0.0181
15,C82G A120G A145G C150U C169A U176G,0.00521
16,C82G A120G A145U C169U U176G,0.00349
17,C82G A120G A145U C169U U176C,0.0176
18,C82G A120G A145U C169U U176A,0.0203
19,C82G A120U A145G C169G U176A,0.00368
20,C82G A120U A145G C169G U176C,0.00438
21,C82G A120U A145G C169G U176G,0.00145
22,C82G A120G A145U C150A C169A,0.00985
23,C82G A120G A145U C150A C169G,0.00926
24,C82G A120G A145U C150A C169U,0.00806

row,Variant,reverse-splicing fitness
1,C82G A120U A145G C150G C169A U176A,0.012
2,C82G A120U A145G C150G C169A U176G,0.00485
3,C82G A120U A145G C150G C169A U176C,0.00809
4,C82G A120G C150A C169G,0.0133
5,C82G A120G C150A C169U,0.00945
6,C82G A120G C150A C169A,0.0117
7,C82G A120G A145G C150U C169G U176A,0.0169
8,C82G A120G A145G C150U C169G U176C,0.0245
9,C82G A120G A145G C150U C169G U176G,0.00428
10,C82G A120U A145G C150U U176G,0.0104
11,C82G A120U A145G C150U U176A,0.0528
12,C82G A120U A145G C150U U176C,0.0776
13,C82G A120U,0.251
14,C82G A120U A145G C150G C169A,0.00872
15,C82G A120U A145G C150G C169U,0.00739
16,C82G A120U A145G C150G C169G,0.0074
17,C82G A120U A145G C150A C169A U176C,0.00287
18,C82G A120U A145G C150A C169A U176A,0.00645
19,C82G A120U A145G C150A C169A U176G,0.00256
20,C82G A120U A145C C150U C169G U176A,0.00262
21,C82G A120U A145C C150U C169G U176C,0.00277
22,C82G A120U A145C C150U C169G U176G,0.00162
23,C82G A120G A145G C150A C169A U176C,0.0228
24,C82G A120G A145G C150A C169A U176G,0.00618

row,Variant,reverse-splicing fitness
1,C82G A120U A145C C150U C169U U176C,0.00227
2,C82G A120U A145C C150U C169U U176G,0.00165
3,C82G A120U A145C C150U C169U U176A,0.00246
4,C82G A120U A145C C169A U176C,0.00168
5,C82G A120U A145C C169A U176A,0.00185
6,C82G A120U A145C C169A U176G,0.00157
7,C82G A120G A145G C150G C169A U176G,0.0077
8,C82G A120G A145G C150G C169A U176A,0.013
9,C82G A120G A145G C150G C169A U176C,0.013
10,C82G A120G A145U C150G U176C,0.0103
11,C82G A120G A145U C150G U176G,0.00404
12,C82G A120G A145U C150G U176A,0.00666
13,C82G A120G A145U C169G,0.0523
14,C82G A120G A145U C169A,0.0302
15,C82G A120G A145U C169U,0.0235
16,C82G A120G A145U U176A,0.0157
17,C82G A120G A145U U176C,0.0191
18,C82G A120G A145U U176G,0.0047
19,C82G A120G C150U C169U U176G,0.00651
20,C82G A120G C150U C169U U176C,0.0203
21,C82G A120G C150U C169U U176A,0.023
22,C82G A120G A145G C169U U176A,0.0208
23,C82G A120G A145G C169U U176G,0.00391
24,C82G A120G A145G C169U U176C,0.0199

row,Variant,reverse-splicing fitness
1,C82G A120U A145C U176C,0.0798
2,C82G A120U A145C U176A,0.0712
3,C82G A120U A145C U176G,0.0211
4,C82G A120G A145G U176G,0.00636
5,C82G A120G A145G U176A,0.0129
6,C82G A120G A145G U176C,0.0211
7,C82G A120G A145U C150U C169G U176C,0.0218
8,C82G A120G A145U C150U C169G U176G,0.00476
9,C82G A120G A145U C150U C169G U176A,0.015
10,C82G A120G A145U C150U C169U U176C,0.0181
11,C82G A120G A145U C150U C169U U176G,0.00413
12,C82G A120G A145U C150U C169U U176A,0.0201
13,C82G A120U A145G C150A U176G,0.00517
14,C82G A120U A145G C150A U176A,0.0118
15,C82G A120U A145G C150A U176C,0.014
16,C82G A120G C150G C169A U176C,0.0102
17,C82G A120G C150G C169A U176G,0.00588
18,C82G A120G C150G C169A U176A,0.0109
19,C82G A120G A145G C150A C169U U176C,0.0168
20,C82G A120G A145G C150A C169U U176A,0.021
21,C82G A120G A145G C150A C169U U176G,0.00581
22,C82G A120G C150U U176A,0.0117
23,C82G A120G C150U U176C,0.0192
24,C82G A120G C150U U176G,0.0083

row,Variant,reverse-splicing fitness
1,C82G A120G A145U C150G C169A U176G,0.00431
2,C82G A120G A145U C150G C169A U176C,0.0121
3,C82G A120G A145U C150G C169A U176A,0.0112
4,C82G A120G C150U C169U,0.0164
5,C82G A120G C150U C169A,0.0193
6,C82G A120G C150U C169G,0.0318
7,C82G A120U A145C C150A C169G U176C,0.00207
8,C82G A120U A145C C150A C169G U176G,0.00136
9,C82G A120U A145C C150A C169G U176A,0.0023
10,C82G A120G A145U C150U U176C,0.0189
11,C82G A120G A145U C150U U176A,0.0121
12,C82G A120G A145U C150U U176G,0.00475
13,C82G A120U A145C C169G U176C,0.00261
14,C82G A120U A145C C169G U176G,0.00141
15,C82G A120U A145C C169G U176A,0.00239
16,C82G A120U A145C C150A C169U U176C,0.00224
17,C82G A120U A145C C150A C169U U176A,0.0023
18,C82G A120U A145C C150A C169U U176G,0.00162
19,C82G A120U A145C C150A C169G,0.00199
20,C82G A120U A145C C150A C169U,0.00213
21,C82G A120U A145C C150A C169A,0.00159
22,C82G A120U A145C C150U C169A U176A,0.00222
23,C82G A120U A145C C150U C169A U176C,0.00192
24,C82G A120U A145C C150U C169A U176G,0.00172

row,Variant,reverse-splicing fitness
1,C82G A120U A145U C150A C169G U176C,0.00192
2,C82G A120U A145U C150A C169G U176A,0.00221
3,C82G A120U A145U C150A C169G U176G,0.00134
4,C82G A120U A145G C150U C169U U176G,0.00216
5,C82G A120U A145G C150U C169U U176C,0.00469
6,C82G A120U A145G C150U C169U U176A,0.00444
7,C82G A120G A145U C169A U176G,0.00363
8,C82G A120G A145U C169A U176A,0.0122
9,C82G A120G A145U C169A U176C,0.0199
10,C82G A120G A145G C150A C169U,0.011
11,C82G A120G A145G C150A C169G,0.0133
12,C82G A120U A145G C150A,0.0245
13,C82G A120U A145G C150G,0.022
14,C82G A120U A145G C150U,0.168
15,C82G A120G A145U C169G U176C,0.0227
16,C82G A120G A145U C169G U176G,0.00374
17,C82G A120G A145U C169G U176A,0.0157
18,C82G A120G A145U C150A C169A U176G,0.00465
19,C82G A120G A145U C150A C169A U176A,0.014
20,C82G A120G A145U C150A C169A U176C,0.0141
21,C82G A120U A145U C150A C169G,0.00252
22,C82G A120U A145U C150A C169U,0.00221
23,C82G A120U A145U C150A C169A,0.00187
24,C82G A120G A145G C150U U176G,0.0072

row,Variant,reverse-splicing fitness
1,C82G A120G A145G C150U U176C,0.0211
2,C82G A120G A145G C150U U176A,0.0107
3,C82G A120G U176G,0.00803
4,C82G A120G U176C,0.0208
5,C82G A120G U176A,0.0149
6,C82G A120U A145C C150G U176C,0.00907
7,C82G A120U A145C C150G U176G,0.00292
8,C82G A120U A145C C150G U176A,0.00741
9,C82G A120G A145G C169G,0.0507
10,C82G A120G A145G C169U,0.0249
11,C82G A120G A145G C169A,0.0319
12,C82G A120G A145G C150U C169A,0.0266
13,C82G A120G A145G C150U C169U,0.0236
14,C82G A120G A145G C150U C169G,0.04
15,C82G A120G A145G C150G C169G U176A,0.0108
16,C82G A120G A145G C150G C169G U176C,0.0129
17,C82G A120G A145G C150G C169G U176G,0.00567
18,C82G A120U A145U C150A C169U U176A,0.00242
19,C82G A120U A145U C150A C169U U176C,0.0022
20,C82G A120U A145U C150A C169U U176G,0.00185
21,C82G A120G A145G C169G U176G,0.00379
22,C82G A120G A145G C169G U176C,0.0345
23,C82G A120G A145G C169G U176A,0.0221

# From the RNAGym collection of RNA variant scans (doi:10.1093/molbev/msab373)
